B1: TPR t1 (parent)
chain: GACCAAUCUGCCCUCAGAGCUCGAGAACAUCUUCGGAUGCAGAGGAGGCAGGCUUCGGUGGCGCGAUAGCGCCAACGUCCUCAACCUCCAAUGCAUCCCACCACAUGAUGAUGCCUGAAGAGCCUUGGUUUUUUG

Variants of: B1
Assay: polymerase ribozyme fitness, log enrichment relative to wild type (log ratio); higher = more active; in vitro selection for triplet polymerase activity
Method in brief: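 Streptavidin-bead capture of gel-excised extended constructs, followed by RT-PCR, closed a single triplicate in vitro selection round. That round began by annealing PCR-built, transcribed mutant libraries of each subunit of a heterodimeric triplet polymerase ribozyme with a biotinylated primer, the partner subunit and triplets, then incubating them frozen at −7 °C. After Illumina sequencing of inputs and outputs, genotypes needed ≥10 input reads and ≥1 read per output. Fitness is the base-2 logarithm of genotype enrichment over wild-type enrichment, using inverse-variance-weighted replicate averages.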

Variant	polymerase ribozyme fitness (log ratio)
GACCAAUCUGCCCUCAGAGCUCGAGAACAUCUUCGGAUGCAGAGGAGGCAGGCUUGGGUGGCCCGAUAGCGCCAACGUCCUCAACCUCCAAUGCAUCCCACCACAUGAUGAUGCCUGAAGAGCCUUGGUUUUUUG	-2.95
GACCAAUCUGCCCUCAGAGCUCGAGAACAUCUUCGGAUGCAGAGGAGGCAGGCUUGGGUGGCGCGAUAUCGCCAACGUCCUCAACCUCCAAUGCAUCCCUCCACAUGAUGAUGCCUGAAGAGCCUUGGUCUUUUG	-0.344
GACCAAUCUGCCCUCAGAGCUCGAGAACAUCUUCGGAUGCAGAGGAGGCAGGCUUGGGUGGCGCGAUAGCGCCAACGUCCUCAACCUCCAAUGCAUCCCACCACAUGAUUAUGCCUAAAGAGCCUUGGUUUUUUG	-4.5
GACCAAUCUGCCCUCAGAGCUCGAGAACAUCUUCGGAUGCAGAGGAGGCAGGCUUGGGUGGCGCGAUAGCGCCAACGUCCUCAACCUCCAAUGAAUCCCACCACAUGAUGAUGCCUGAAGAGCCUUGGUUUUUUG	-0.555
GACCAAUCUGCCCUCAGAGCUCGAGAACAUCUUCGGAUGCAGAGGAGGCAGGCUUGGGUGACGCGAUAGCGCCAACAUCCUCAACCUCCAAUGCAUCCCACCACAUGAUGAUGCCUGAAGAGCCUUGGUUUUUUG	0.026
GACCAAUCUGCCCUCAGAGCUCGAGAACAUCUUCGGAUGCAGAGGAGGCAGGCUUGGGUGGCGCGAUAGCACCAACGUCCUCAACCUCCAAUGCAUCCCACCACAUGAUUAUGCCUAAAGAGCCUUGGUUUUUUG	-5.02
GACCAAUCUGCCCUCAGAGCUCGAGAACAUCUUCGGAUGCAGAGGAGGCAGGCUUGGGUGGCGCGAUAGCGCCAACGUCCUCAACCUCCAAUGCAUCACACCACAUGAUGAUGCCUGAAGAGCCUUGGUUUUUUG	-3.95
GACCAAUCUGCCCUCAGAGCUCGAGAACAUCUUCGGAUGCAGAGGAGGCAGGCUUGGGUGUCGCGAUAGCGCCAACGUCCUCAACCUCCAAUGCAUCCCACCACAAGAUGAUGCUUGAAGAGCCUUGGUUUUUUG	-5.22
GACCAAUCUGCCCUCAGAGCUCGAGAACAUCUUCGGAUGCAGAGGAGGCAGGCUUGUGUGGCGCAAUAGCGCCAACGUCCUCAACCUCCAAUGCAUCCCAGCACAUGAUGCUGCCUGAAGAGCCUUGGUUUUUUG	-6.81
GACCAAUCUGCCCUCAGAGCUCGAGAACAUCUUCGGAUGCAGAGGAGGCAGGCUUGGUCGGCGCGAUAGCGCCAACGUCCUCAACCUCCAAUGCAUCCCACCACAUGAUGAUGCCUGAAGAGCAUUGGUUUUUUG	1.88
GACCAAUCUGCCCUCAGAGCUCGAGAACAUCUUCGGAUGCAGAGGAGGCAGGCUUGGGUGGCGCGAUAGCGCCAACGUCCUCAACCUCCAAUGCAUCCCACCACAUUAUGAUGCCUGAAGAGCCUUGGUUUUUUG	-5.02
GACCAAUCUGCCCUCAGAGCUCGAGAACAUCUUCGGAUGCAGAGGAGGCAGGCUUGGGUGGCGCGAUAGCGCCAACGUCCUCAACCUCCAAUGCAUCCCACCACAUGAUGAUGCCUGAAGAGCGUUGGUUUUUUG	0.656
GACCAAUCUGCCCUCAGAGCUCGAGAACAUCUUCGGAUGCAGAGGAGGCAGGCUUGGGUGGCGCGAUAGCGCCAACGUCCUCAACCUCCAAUGCAUCCCACCACAUGAUGAUGCCUGAAGAGCAUUGGUUUUUUG	1.73
GACCAAUCUGCCCUCAGAGCUCGAGAACAUCUUCGGAUGCAGAGGAGGCAGGCUUGGGUGGCACGAUAGCGCCAACUUCCUCAACCUCCAAUGCAUCCCACCACAUGAUGAUGCCUGAACAGCCUUGGUUUUUUG	0.612
GACCAAUCUGCCCUCAGAGCUCGAGAACAUCUUCGGAUGCAGAGGAGGCAGGCUUGGGUGGCGCGAUAACGCCAACGUCCUCAACCUCCAAUGCAUCCCACCACAUGAUGAUGCCUGAAGAGCCUUGGUUUUUUG	-2.86
GACCAAUCUGCCCUCAGAGCUCGAGAACAUCUUCGGAUGCAGAGGAGGCAGGCUUGGGUGGCGCGAUAGCGCCAACCUCCUCAACCUCCAAUGCAUCCCACCACAUGAUGAUGCCUGAAGAGCCUUCGGUUUUUG	-0.438
GACCAAUCUGCCCUCAGAGCUCGAGAACAUCUUCGGAUGCAGAGGAGGCAGGCUUGGGUGGCGCGAUAGCGCCAACGUCCUCAACCUCGAAUGCAUCCCACCACAUGAUGAUGCCUGAAGAACCUUGGAUUUUUG	-4.09
GACCAAUCUGCCCUCAGAGCUCGAGAACAUCUUCGGAUGCAGAGGAGGCAGGCUUGGGUGGCGCGAUAGCGCCAACGUCCUCAACCUCCAAUGCAUCCCACCACAUGAUCAUGCCUGAAGAGCCUUGGUUUUUUG	-3.6
GACCAAUCUGCCCUCAGAGCUCGAGAACAUCUUCGGAUGCAGAGGAGGCAGGCUUGGGUGGCGCGAUAGCUCCAACGUCCUCAACCUCCAAUGCAUCCCACCACAUGAUGAUGCCUGAAAAGCCUUAGUUUUUUG	-4.03
GACCAAUCUGCCCUCAGAGCUCGAGAACAUCUUCGGAUGCAGAGGAGGCAGGCUUGGGUGGCGCGAUAGCGCCAACGUCCUCAACCUCCAAUGCAUCCCACCACAUGAUGAUCCCUGAAGAGCCUUGGUUUUGUG	-2.55
GACCAAUCUGCCCUCAGAGCUCGAGAACAUCUUCGGAUGCAGAGGAGGCAGGCUUGGGUGUCGCGAUAGCGCUAACGUCCUCAACCUCCAAUGCAUCCCACCACAUGAUGAUGCCUGAAGAGCCUUGGUUUUUUG	-3.17

Source: the RNAGym collection of RNA variant scans (doi:10.1073/pnas.2313332121)
